Assay results reported in patent US20240325490A1 (RESEARCH AND BUSINESS FOUNDATION SUNGKYUNKWAN UNIVERSITY, published 2024).
Each block holds one binder with its values, some of them ahead of it.

Assays:
[1] = molecular target: T1, P62 (endogenous, mouse brain) (mouse, UniProt Q64337 2-442, limits assumed); assay: protein ligation assay (PLA) in situ, mouse brain CA1 after MCAO
T1 construct: Endogenous protein in mouse brain tissue

[2] = molecular target: T1, P62 (endogenous, mouse brain); assay: immunoprecipitation / immunoblot from AAV2-injected mouse brains after MCAO (FIGS. 6F and 6G)

binding result [1]: binds
B1: EBP1 (endogenous, mouse brain) (other, UniProt P50580 2-394, looked up)
chain: SGEDEQQEQTIAEDLVVTKYKMGGDIANRVLRSLVEASSSGVSVLSLCEKGDAMIMEETGKIFKKEKEMKKGIAFPTSISVNNCVCHFSPLKSDQDYILKEGDLVKIDLGVHVDGFIANVAHTFVIGVAQGTQVTGRKADVIKAAHLCAEAALRLVKPGNQNTQVTEAWNKVAHSFNCTPIEGMLSHQLKQHVIDGEKTIIQNPTDQQKKDHEKAEFEVHEVYAVDVLVSSGEGKAKDAGQRTTIYKRDPSKQYGLKMKTSRAFFSEVERRFDAMPFTLRAFEDEKKARMGVVECAKHELLQPFNVLYEKEGEFVAQFKFTVLLMPNGPMRITSGPFEPDLYKSEMEVQDAELKALLQSSASRKTQKKKKKKASKTVENATSGETLEENGAGD
notes: Endogenous protein detected in situ by PLA; also called mouse Ebp1

binding result [2]: no binding
B2: GFP-EBP1-K376A expressed from AAV2 in mouse brain (other, UniProt Q9UQ80 1-394, looked up)
chain: MSGEDEQQEQTIAEDLVVTKYKMGGDIANRVLRSLVEASSSGVSVLSLCEKGDAMIMEETGKIFKKEKEMKKGIAFPTSISVNNCVCHFSPLKSDQDYILKEGDLVKIDLGVHVDGFIANVAHTFVVDVAQGTQVTGRKADVIKAAHLCAEAALRLVKPGNQNTQVTEAWNKVAHSFNCTPIEGMLSHQLKQHVIDGEKTIIQNPTDQQKKDHEKAEFEVHEVYAVDVLVSSGEGKAKDAGQRTTIYKRDPSKQYGLKMKTSRAFFSEVERRFDAMPFTLRAFEDEKKARMGVVECAKHELLQPFNVLYEKEGEFVAQFKFTVLLMPNGPMRITSGPFEPDLYKSEMEVQDAELKALLQSSASRKTQKKKKKKASATAENATSGETLEENEAGD
notes: also called AAV2-GFP-EBP1-K376A; AAV2-K376A; not shown: GFP tag
